{
  "source": "patent US6379959B1",
  "about": "“Metalocarboxypeptidase inhibitors and derived molecules used as antitumor agents” (Universitat Autonoma de Barcelona, priority 1996, dated 2002)",
  "key": {"[1]": {"system": "human pancreatic adenocarcinoma cell line IBF-CP3", "test": "Proliferation test by recount of the cells number (hemocytometer), IBF-CP3", "type": "cell-based", "procedure": "In this assay and with the aim of determining whether the presence in the culture medium produces some effect on the growth in vitro of the cell lines, the final number of the cells when the control reaches monolayer is determined, in the presence and in the absence of the inhibitor. The calculation is made by direct recount of the number of cells using trypsinization and subsequent recount in a hemocytometer. The detailed method is as follows:\n1. In each of the three culture flasks of 25 cm^2, 5×10^5 cells are seed and a total volume of the culture medium is added (DMEM with a 10% of fetal bovine serum or synthetic serum, according to the test) of 5 mL:\nA first flask is used as control and no PCI is added to it.\nPCI is added to a second flask some hours after the culture has started and once the cells have adhered to the bottom of the flask. This type of test is defined as postadherence test.\nPCI is added to a third flask at the same time as the culture has begun, before the cells have had time to adhere to the bottom of the flask, thus constituting the preadherence test.\n2. The cells are maintained in an incubator at 37° C., 87% of relative humidity and 10% of CO2. The medium contained in the flasks is changed every 3-4 days. Medium free of PCI is added to the control flask; medium with PCI is added to the other two.\n3. When the culture of one of the flasks reaches a state of monolayer (or after a specific number of days), we proceed to count the number of cells in each one of them. Firstly and in order to do that, the cells are trypsinized using the following steps:\nImmediately after, the recount of the number of cells is done. To do that, an aliquot of 10 μL is taken and it is placed in an eppendorf tube. 10 μL of a solution of trypan blue dye is added. Then, it is well mixed and two aliquots of 10 μL of the mixture are taken and placed in the two zones of an hemocytometer which is placed in the inverted microscope.\nThe live cells are observed as being refringent and clear, while the dead ones are observed as opaque and dyed blue, for the staining is only able to penetrate dead cells. The total number of cells of the W zone of the hemocytometer is counted, differentiating between the live and the dead ones. Based on this recount, the total number of cells that was in the initial suspension (which will be the total number of cells that was in the culture) is calculated by multiplying the number obtained by 2×10^4. The viability (in %) is calculated by dividing the number of live cells by the total number of counted cells and multiplying it by 100.\nThe effect produced by the presence of PCI in the medium is expressed as % of cell growth inhibition, which is calculated according to the formula [formula] […]"}, "[2]": {"molecular_target": "T1, EGF receptors of the Capan-1 cell line (Homo sapiens, UniProt P00533)", "T1 construct": "endogenous in cells; host or cells: Capan-1 (human pancreatic adenocarcinoma)", "test": "Competitive binding with 125I-EGF to EGF receptors", "procedure": "The detailed procedure that was employed is as follows:\n1. 1.25×10^5 cells were seed per well in plates of 24 wells which were kept in culture for 48 h in DMEM FBS 10%. Triplicates were put for each concentration of competitor to be tested.\n2. 24 h before the test, the full medium of the wells was replaced by 2 mL, per well, of DMEM without fetal serum.\n3. The next day, the cells were washed, three times, with cold binding medium.\n4. The cells were incubated with 70 μL of binding medium to which the concentrations of the competitor to be tested had been added. […] Afterwards, 40,000 cpm (350 pM) of ^125I-EFG were added. The incubation was done at 4° C. for 5 h.\n5. The cells were washed quickly three times with 500 μL of the cold washing solution.\n6. They were solubilized through incubation for 30 min at room temperature with the permeabilization solution.\n7. The radioactivity in the suspension was determined with a gamma counter. To determine the unspecific binding, the value of unspecific binding was deducted from the total bounded radioactivity.\nFrom the test, the bounded radioactivity for each one of the tested concentrations of unlabeled competitor was determined. […] To determine the percentage, the following formula was applied: [formula]\nwhere B is the amount of specific binding in presence of a specific competitor concentration.\nWith the aim of determining the kind of binding which is taking place, a pseudo-Hill or Logit-log representation (Pratt, W. B. and Taylor, P. “Principles of Drug Action. The Basis of Pharmacology”. Ed. Churchill Livingstone, N.Y., 1990) was carried out. The data of specific binding percentage are used to calculate the log(P/[100-P]), which is represented versus the logarithm of the competitor concentration.\nThe resulting slope of the straight line is called pseudo-Hill coefficient.\nThe fitting has been made using the programme Graphpad Inplot4. A non-linear fitting for competition for two binding sites is made. The logarithm of the competitor concentration has been represented versus the values of Logit-log (FIG. 25).\nFrom the previous fitting, the value of IC50, that is to say, the competitor concentration which inhibits 50% of the specific binding for the two types of binding was determined. Also, the percentage of the two types of binding sites was determined."}, "[3]": {"details": "[PCI] nM 1, 350 pM 125I-EGF, 5 h, 4° C."}},
  "note": "Positions of bridges follow the written chain, without caps; N, C: chain ends. No end group written: not given here.",
  "data": [
    {"substance": "PCI: potato carboxypeptidase inhibitor, isoform IIa, obtained by recombinant DNA techniques in E. coli (SEQ ID NO.2) (EQHADPICNKPCKTHDDCSGAWFCQACWNSARTCGPYVG; disulfide 12-27, 18-34, 8-24)", "values": [
      {"measurement": "Percentage of Growth Inhibition", "setting": "[1]; 5 mg PCI/mL, Postadhesion", "value": "23.7 ± 19.3", "unit": "%"},
      {"measurement": "Percentage of Growth Inhibition", "setting": "[1]; 5 mg PCI/mL, Preadhesion, DMEM+10%BMS until controls confluent", "value": "20.4 ± 14.2", "unit": "%"},
      {"measurement": "Percentage of Growth Inhibition", "setting": "[1]; 10 mg PCI/mL, Postadhesion", "value": "15.1 ± 8.3", "unit": "%"},
      {"measurement": "Percentage of Growth Inhibition", "setting": "[1]; 10 mg PCI/mL, Preadhesion", "value": "11.6 ± 8.5", "unit": "%"},
      {"measurement": "% Receptors", "setting": "[2]; High affinity binding site", "value": 99.7, "unit": "%"},
      {"measurement": "Log (P/[100-P])", "setting": "[2]; Log [PCI] M −4.33", "value": "−0.272"},
      {"measurement": "Log (P/[100-P])", "setting": "[2]; Log [PCI] M −4.93", "value": "−0.2246"},
      {"measurement": "Log (P/[100-P])", "setting": "[2]; Log [PCI] M −5.83", "value": "−0.1873"},
      {"measurement": "Log (P/[100-P])", "setting": "[2]; Log [PCI] M −6.63", "value": "0,605"},
      {"measurement": "Log (P/[100-P])", "setting": "[2]; Log [PCI] M −7.63", "value": 0.713},
      {"measurement": "Log (P/[100-P])", "setting": "[2]; Log [PCI] M −8.63", "value": 1.205},
      {"measurement": "Log (P/[100-P])", "setting": "[2]; Log [PCI] M −9", "value": 1.99},
      {"measurement": "% Receptors", "setting": "[2]; Low affinity binding site", "value": 0.3, "unit": "%"},
      {"measurement": "Percentage of specific binding", "setting": "[2]; [3]", "value": 99, "unit": "%"},
      {"measurement": "Specific binding (cpm)", "setting": "[2]; [3]", "value": 1597, "unit": "cpm"},
      {"measurement": "Percentage of specific binding", "setting": "[2]; [PCI] nM 2.32", "value": 94.14, "unit": "%"},
      {"measurement": "Specific binding (cpm)", "setting": "[2]; [PCI] nM 2.32", "value": 1503.5, "unit": "cpm"},
      {"measurement": "Percentage of specific binding", "setting": "[2]; [PCI] nM 23.2", "value": 83.78, "unit": "%"},
      {"measurement": "Specific binding (cpm)", "setting": "[2]; [PCI] nM 23.2", "value": 1307, "unit": "cpm"},
      {"measurement": "Percentage of specific binding", "setting": "[2]; [PCI] nM 232.8", "value": 80.13, "unit": "%"},
      {"measurement": "Specific binding (cpm)", "setting": "[2]; [PCI] nM 232.8", "value": 1250, "unit": "cpm"},
      {"measurement": "Percentage of specific binding", "setting": "[2]; [PCI] nM 2328.2", "value": 39.38, "unit": "%"},
      {"measurement": "Specific binding (cpm)", "setting": "[2]; [PCI] nM 2328.2", "value": 621.5, "unit": "cpm"},
      {"measurement": "Percentage of specific binding", "setting": "[2]; [PCI] nM 11641", "value": 37.35, "unit": "%"},
      {"measurement": "Specific binding (cpm)", "setting": "[2]; [PCI] nM 11641", "value": 582.6, "unit": "cpm"},
      {"measurement": "Percentage of specific binding", "setting": "[2]; [PCI] nM 46566", "value": 34.83, "unit": "%"},
      {"measurement": "Specific binding (cpm)", "setting": "[2]; [PCI] nM 46566", "value": 543.33, "unit": "cpm"},
      {"measurement": "binding capacity to the receptor of high affinity, times inferior to that of the EGF", "setting": "[2]; high affinity receptor", "value": 6, "unit": "times"}
    ]}
  ]
}
